Reference: PMC13062060, “Calcium activation mechanism of a noncanonical aromatic L-amino acid decarboxylase from psilocybin mushroom Psilocybe cubensis” (Communications Biology, 2026)

Tested on: N[C@@H](Cc1ccccc1)C(=O)O
Test: LC-MS of phenylethylamine formed, Michaelis-Menten fit
Assay type: biochemical, Psilocybe cubensis
Details: 30 mM calcium acetate (activating), 50 mM Tris pH 8.0, room temperature, brackets 95% CI, also measured in 30 mM NaCl
Excerpt: LC-MS of phenylethylamine formed, Michaelis-Menten fit on PcncAAAD (noncanonical aromatic L-amino acid decarboxylase)

PcncAAAD (noncanonical aromatic L-amino acid decarboxylase) (Psilocybe cubensis)
Km: 88 [49–154] µM | kcat: 0.51 s⁻¹

PcncAAAD (noncanonical aromatic L-amino acid decarboxylase) (Psilocybe cubensis; D825A/D931A/D971A/D973A/E637A/E638A/E824A/E972A)
Km: 586 [359–979] µM | kcat: 0.044 s⁻¹

PcncAAAD (noncanonical aromatic L-amino acid decarboxylase) (Psilocybe cubensis; D825A/D931A/E824A)
Km: 174 [105–287] µM | kcat: 0.41 s⁻¹

PcncAAAD (noncanonical aromatic L-amino acid decarboxylase) (Psilocybe cubensis; D971A/D973A/E637A/E638A/E972A)
Km: 513 [319–839] µM | kcat: 0.073 s⁻¹
